Test results: paper PMC6937562

Biological target: C3d (human), P01024
Assay: SPR; homemade HJEM2 chip, 61 RU C3d amine-coupled; FH flowed (2 μM to 3.9 nM); Biacore T200, 25 °C, HBS-P pH 7.4; 1:1 steady-state model
Conditions: remark: other sources report otherwise

C3d (human), P01024, sequence (P01024 1002-1303): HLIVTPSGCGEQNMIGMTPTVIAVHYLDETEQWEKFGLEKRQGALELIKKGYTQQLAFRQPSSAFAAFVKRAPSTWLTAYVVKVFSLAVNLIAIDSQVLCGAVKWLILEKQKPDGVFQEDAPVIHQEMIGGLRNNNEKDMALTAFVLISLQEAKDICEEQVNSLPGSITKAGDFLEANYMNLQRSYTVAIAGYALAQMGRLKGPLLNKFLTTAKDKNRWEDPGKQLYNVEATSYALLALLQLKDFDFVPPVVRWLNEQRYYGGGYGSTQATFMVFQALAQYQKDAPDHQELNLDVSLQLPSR

B1: factor H, P08603 19-1231 (natural protein)
chain: EDCNELPPRRNTEILTGSWSDQTYPEGTQAIYKCRPGYRSLGNVIMVCRKGEWVALNPLRKCQKRPCGHPGDTPFGTFTLTGGNVFEYGVKAVYTCNEGYQLLGEINYRECDTDGWTNDIPICEVVKCLPVTAPENGKIVSSAMEPDREYHFGQAVRFVCNSGYKIEGDEEMHCSDDGFWSKEKPKCVEISCKSPDVINGSPISQKIIYKENERFQYKCNMGYEYSERGDAVCTESGWRPLPSCEEKSCDNPYIPNGDYSPLRIKHRTGDEITYQCRNGFYPATRGNTAKCTSTGWIPAPRCTLKPCDYPDIKHGGLYHENMRRPYFPVAVGKYYSYYCDEHFETPSGSYWDHIHCTQDGWSPAVPCLRKCYFPYLENGYNQNYGRKFVQGKSIDVACHPGYALPKAQTTVTCMENGWSPTPRCIRVKTCSKSSIDIENGFISESQYTYALKEKAKYQCKLGYVTADGETSGSITCGKDGWSAQPTCIKSCDIPVFMNARTKNDFTWFKLNDTLDYECHDGYESNTGSTTGSIVCGYNGWSDLPICYERECELPKIDVHLVPDRKKDQYKVGEVLKFSCKPGFTIVGPNSVQCYHFGLSPDLPICKEQVQSCGPPPELLNGNVKEKTKEEYGHSEVVEYYCNPRFLMKGPNKIQCVDGEWTTLPVCIVEESTCGDIPELEHGWAQLSSPPYYYGDSVEFNCSESFTMIGHRSITCIHGVWTQLPQCVAIDKLKKCKSSNLIILEEHLKNKKEFDHNSNIRYRCRGKEGWIHTVCINGRWDPEVNCSMAQIQLCPPPPQIPNSHNMTTTLNYRDGEKVSVLCQENYLIQEGEEITCKDGRWQSIPLCVEKIPCSQPPQIEHGTINSSRSSQESYAHGTKLSYTCEGGFRISEENETTCYMGKWSSPPQCEGLPCKSPPEISHGVVAHMSDSYQYGEEVTYKCFEGFGIDGPAIAKCLGEKWSHPPSCIKTDCLSLPSFENAIPMGEKKDVYKAGEQVTYTCATYYKMDGASNVTCINSRWTGRPTCRDTSCVNPPTVQNAYIVSRQMSKYPSGERVRYQCRSPYEMFGDEEVMCLNGNWTEPPQCKDSTGKCGPPPPIDNGDITSFPLSVYAPASSVEYQCQNLYQLEGNKRITCRNGQWSEPPKCLHPCVISREIMENYNIALRWTAKQKLYSRTGESVEFVCKRGYRLSSRSHTLRTTCWDGKLEYPTCAKR
Binder B1 has a Kd of 640 nM.
